Key:
[1] = test system: xylose isomerase activity; test: Heterologous xylose isomerase expression in engineered yeast (active yes/no); settings: xylose isomerase of the donor organism expressed in engineered yeast (S. cerevisiae)
xylose = test: In vitro xylose isomerase activity assay on soluble whole cell extract (sorbitol dehydrogenase/NADH coupled, A340; Km, specific activity); type: biochemical, Saccharomyces cerevisiae
Method: […] Louis, Mo.), and about 2 U sorbitol dehydrogenase (Roche) at about 30° C. […] A Beckman DU-800 was utilized with an Enzyme Mechanism software package (Beckman Coulter, Inc.), and the change in the A340 was monitored for 2-3 minutes.
Approximately 20 μg of soluble whole cell extract from each transformed cell line, prepared using Y-PER plus reagent as described above, was incubated in a solution containing about 100 mM Tris, pH 7.5, 10 mM MgCl ? 2, 0.15 mM NADH (Sigma, St. Louis, Mo.), and 2 U Sorbitol Dehydrogenase (SDH) (Roche, Indianapolis, Ind.) at about 30° C. […] A Beckman DU-800 spectrophotometer was utilized with an Enzyme Mechanism software package (Beckman Coulter, Inc, Brea, Calif.), and the change in the A340 was monitored for 2-3 minutes.
Approximately 20 μg of soluble whole cell extract from each transformed cell line was prepared using Y-PER plus reagent as described above was incubated in a solution containing about 100 mM Tris, pH 7.5, 10 mM MgCl2, 0.15 mM NADH (Sigma, St. Louis, Mo.), and 2 U sorbitol dehydrogenase (SDH) (Roche, Indianapolis, Ind.) at about 30° C. […] A Beckman DU-800 spectrophotometer was utilized with an Enzyme Mechanism software package (Beckman Coulter, Inc, Brea, Calif.), and the change in the A340 was monitored for 2-3 minutes.
Approximately 20 μg of soluble whole cell extract from each transformed cell line was prepared using Y-PER plus reagent as described above was incubated in a solution containing about 100 mM Tris, pH 7.5, 10 mM MgCl ? 2, 0.15 mM NADH (Sigma, St. Louis, Mo.), and 2 U Sorbitol Dehydrogenase (SDH) (Roche, Indianapolis, Ind.) at about 30° C. […] A Beckman DU-800 spectrophotometer was utilized with an Enzyme Mechanism software package (Beckman Coulter, Inc, Brea, Calif.), and the change in the A340 was monitored for 2-3 minutes.

[2] = Western blot (anti-6xHis) of EDD and EDA expression in yeast, soluble/insoluble extract; set-up: species or system Saccharomyces cerevisiae; settings: C-terminal HIS tag, S. cerevisiae BY4742; total crude and solubilized extract; FIGS. 13A and 13B
Method: Transformation of the p426GPD plasmids containing an edd or an eda variant gene into yeast strain BY4742 was accomplished using the Zymo Research frozen-EZ yeast transformation II kit according to the manufacturer's protocol. The transformed BY4742 cells were selected by growth on a synthetic dextrose medium (SD) (0.67% yeast nitrogen base-2% dextrose) containing complete amino acids minus uracil (Krackeler Scientific Inc). Plates were incubated at about 30° C. for about 48 hours. Transformant colonies for each edd and eda variant were inoculated onto 5 ml of SD minus uracil medium and cells were grown at about 30° C. and shaken at about 250 rpm for about 24 hours. Cells were harvested by centrifugation at 1000×g for about 5 minutes, after which protein crude extract was prepared with Y-PER Plus (Thermo Scientific) according to the manufacturer's instructions. Whole cell extract protein concentrations were determined using the Coomassie Plus Protein Assay (Thermo Scientific) according to the manufacturer's directions. For each edd and eda variant His-tagged construct, about 10 μg of soluble and insoluble fractions were loaded on 4-12% NuPAGE Novex Bis-Tris protein gels (Invitrogen) and proteins were analyzed by western using anti-(H is)6 (SEQ ID NO: 138) mouse monoclonal antibody (Abcam) and HRP-conjugated secondary antibody (Abcam). […]

6-phosphogluconate = test: EDA activity assay: S. cerevisiae EDA extracts with saturating E. coli EDD extract, LDH/NADH coupled; type: biochemical, Saccharomyces cerevisiae
Method: EDA extracts were prepared using the following protocol.
Grow 5 ml LB-Kan preps of BF1055 (BL21/DE3 with pET26b empty vector) and BF1706 (BL21DE3 with pET26b+E. coli EDD).
Grow 50 ml LB-Kan prep of BF1055, 2% (v/v) inoculate.
Grow 50 ml prep of BF1706 using Novagen's Overnight Express (46.45 ml LB-Kan, 1 ml solution 1, 2.5 ml solution 2, 50 μl solution 3, 5 μl of 1M MnCl2, 50 μl of 0.5 M FeCl2), 2% (v/v) inoculate.
Inoculate to OD600 of 0.2.
EDD extractions (adapted from Chemyan et al, Protein Science 16:2368-2377, 2007): • 1) Pellet cells in 50 ml conical tubes, 4° C., 3,000 rpm, 10 mins, discard supernatant. • 2) Resuspend in 2 ml degassed PDGH buffer (20 mM MES pH 6.5, 30 mM NaCl, 5 mM MnCl2, 0.5 mM FeCl2, 10 mM 2-mercaptoethanol, 10 mM cysteine, sparged with nitrogen gas). Move to hungate tube. • 3) Add 0.1% Triton X-100, 10 ng/ml DNase, 10 μg/ml PMSF, 10 μg/ml TAME (Nα-(p-toluene sulfonyl)-L-arginine methyl ester), 100 μg/ml lysozyme. • 4) Sparge hungate tube with nitrogen gas, cap and seal. […]
Each reaction contains 50 mM Tris-HCl, pH 7, 10 mM MgCl2, 0.15 mM NADH, 15 μg LDH, saturating amounts of EDD determined empirically (usually ˜100 μg), 1-50 μg EDA (depending on level of activity), and 1 mM 6-phosphogluconate. Reactions are started by the addition of 6-phosphogluconate and monitored for 5 mins at 30° C.

## Piromyces: xylose isomerase from Piromyces strain E2 (SEQ ID NO: 35)
[1]
  Active? (yes/no): Yes
xylose; soluble whole cell extract, pH 7.5, 30° C.
  Specific Activity: 2.02 µmol/min/mg

B1: R. flavefaciens, FD-1 XI: xylose isomerase from R. flavefaciens FD-1 (SEQ ID NO: 110) expressed in S. cerevisiae (protein, listed as Ruminococcus flavefaciens)
chain: MEFFKNISKIPYEGKDSTNPLAFKYYNPDEVIDGKKMRDIMKFALSWWHTMGGDGTDMFGCGTADKTWGENDPAARAKAKVDAAFEIMQKLSIDYFCFHDRDLSPEYGSLKDTNAQLDIVTDYIKAKQAETGLKCLWGTAKCFDHPRFMHGAGTSPSADVFAFSAAQIKKALESTVKLGGTGYVFWGGREGYETLLNTNMGLELDNMARLMKMAVEYGRSIGFKGDFYIEPKPKEPTKHQYDFDTATVLGFLRKYGLDKDFKMNIEANHATLAQHTFQHELCVARTNGAFGSIDANQGDPLLGWDTDQFPTNIYDTTMCMYEVIKAGGFTNGGLNFDAKARRGSFTPEDIFYSYIAGMDAFALGYKAASKLIADGRIDSFISDRYASWSEGIGLDIISGKADMAALEKYALEKGEVTDSISSGRQELLESIVNNVIFNL
xylose; 100 μg total soluble crude extract, 500 mM xylose, FIG. 25
  activity (slope) at saturating xylose: highest activity of the candidates tested
xylose; xylose concentrations between 40 and 500 nM
  specific activity relative to native XI control: greater than 2 fold

B2: PAO1 EDD: phosphogluconate dehydratase (edd) from P. aeruginosa PAO1 (SEQ ID NO: 70) (protein, listed as Pseudomonas aeruginosa)
chain: MHPRVLEVTRRIQARSAATRQRYLEMVRAAASKGPHRGTLPCGNLAHGVAACGESDKQTLRLMNQANVAIVSAYNDMLSAHQPFERFPGLIKQALHEIGSVGQFAGGVPAMCDGVTQGEPGMELSLASRDVIAMSTAIALSHNMFDAALCLGVCDKIVPGLLIGSLRFGHLPTVFVPAGPMPTGISNKEKAAVRQLFAEGKATREELLASEMASYHAPGTCTFYGTANTNQLLVEVMGLHLPGASFVNPNTPLRDELTREAARQASRLTPENGNYVPMAEIVDEKAIVNSVVALLATGGSTNHTLHLLAIAQAAGIQLTWQDMSELSHVVPTLARIYPNGQADINHFQAAGGMSFLIRQLLDGGLLHEDVQTVAGPGLRRYTREPFLEDGRLVWREGPERSLDEAILRPLDKPFSAEGGLRLMEGNLGRGVMKVSAVAPEHQVVEAPVRIFHDQASLAAAFKAGELERDLVAVVRFQGPRANGMPELHKLTPFLGVLQDRGFKVALVTDGRMSGASGKVPAAIHVSPEAIAGGPLARLRDGDRVRVDGVNGELRVLVDDAEWQARSLEPAPQDGNLGCGRELFAFMRNAMSSAEEGACSFTESLNGWR
[2]
  expression and solubility (western): expressed and soluble

B3: E. coli EDA: 2-keto-3-deoxygluconate-6-phosphate aldolase (eda) from E. coli expressed in yeast (protein, UniProt P0A955 1-213, looked up)
KHG/KDPG aldolase: MKNWKTSAESILTTGPVVPVIVVKKLEHAVPMAKALVAGGVRVLEVTLRTECAVDAIRAIAKEVPEAIVGAGTVLNPQQLAEVTEAGAQFAISPGLTEPLLKAATEGTIPLIPGISTVSELMLGMDYGLKEFKFFPAEANGGVKALQAIAGPFSQVRFCPTGGISPANYRDYLALKSVLCIGGSWLVPADALEAGDYDRITKLAREAVEGAKL
[2]
  expression and solubility (western): expressed and soluble
6-phosphogluconate; EDA expressed in S. cerevisiae, saturating E. coli EDD
  EDA activity relative to the EDA from P. aeruginosa: approximately 16 fold
6-phosphogluconate; repeat: 100 μg EDD and 25 μg EDA cell lysates (5 μg E. coli EDA), FIG. 24
  EDA activity ranking: most active
